# Where a chain is given by its changes, count along the chain named.
# B1: high affinity PDL-1 molecule L3C7d (ligand)
# chain: WTVTVPKDLYVVEYGSNMTIECKFPVEKQLDLAALEVHWFMEDKNIFSFVHGEEDLKVQHSSYRQRARLLKDQLSLGNAALQITDVKLQDAGVYTCLIGYKGGADYKRITVKVNAPYNKINQRILVVDPVTSEHELTCQAEGYPKAEVIWTSSDHQVLSGKTTTTNSKREEKLFNVTSTLRINTTTNEIFYCTFRRLDPEENHTAELVIPEL
# B2: high affinity PDL-1 molecule L3C7b (ligand)
# chain: FTVTVPKDLYVVEYGSNMTIECKFPVEKQLDLAALEVHWFMEDKNIFSFVHGEEDLKVQHSSYRQRARLLKDQLSLGNAALQITDVKLQDAGVYVCLIGYKGADYKRITVKVNAPYNKINQRILVVDPVTSEHELTCQAEGYPKAEVIWTSSDHQVLSGKTTTTNSKREEKLFNVTSTLRINTTTNEIFYCTFRRLDPEENHTAELVIPEL
# B3: high affinity PDL-1 molecule L3C7c (ligand)
# chain: B2 chain with F1W, V95T
# B4: high affinity PDL-1 molecule L3D9 (ligand)
# chain: B2 chain with E36N, H38F, F47I, S48Q, V95T, K101E
# B5: high affinity PDL-1 molecule L32G5 (ligand)
# chain: B2 chain with E36I, H38Y, F40E, F47I, S48Q, V95T, K101H
# B6: high affinity PDL-1 molecule L22C7 (ligand)
# chain: B2 chain with F47I, V95R, L97M, G99S, K101G
# B7: high affinity PDL-1 molecule L3G10 (ligand)
# chain: B2 chain with E36T, H38A, F40Y, F47I, S48Q, V95T, K101D
# B8: high affinity PDL-1 molecule L22A5 (ligand)
# chain: B2 chain with E36Q, F47P, V95R, L97M, G99S, K101G
# B9: high affinity PDL-1 molecule L22D5 (ligand)
# chain: B2 chain with E36Q, V95R, L97M, G99S, K101G
# Molecular target: T1, PD-1 molecule (refolded, purified and biotinylated PD-1 of Example 2) (UniProt Q15116 33-150, biotinylated with BirA enzyme (site not stated))
# T1 construct: also called Programmed Death-1
# Experiment: SPR (BIAcore T200), single-cycle kinetics; biotinylated PD-1 captured via streptavidin, PDL-1 variant in solution
# Description: The anti-streptavidin antibody (GenScript) was added to the coupling buffer (10 mM sodium acetate buffer, pH 4.77). The antibody was then flowed through a CMS chip previously activated with EDC and NHS to immobilize the antibody on the chip surface. Finally, the unreacted activation surface was blocked with a solution of ethanolamine hydrochloride to complete the coupling process.
# A low concentration of streptavidin is allowed to flow over the surface of the antibody-coated chip, then the biotinylated PD-1 is passed through the detection channel and the other channel is used as a reference channel. Then, 0.05 mM biotin was passed through the chip at a flow rate of 10 μL/min for 2 min to block the remaining binding sites of streptavidin. The single-cycle kinetic analysis method was used to measure its affinity. […] The binding time for each injection was 120 s, and it was disassociated for 600 s after the last injection. The chips were regenerated with 10 mMGly-HCl, pH 1.75 after each round of assays. Kinetic parameters were calculated using BIAcore Evaluation software.
# T1 sequence (Q15116 33-150 limits assumed): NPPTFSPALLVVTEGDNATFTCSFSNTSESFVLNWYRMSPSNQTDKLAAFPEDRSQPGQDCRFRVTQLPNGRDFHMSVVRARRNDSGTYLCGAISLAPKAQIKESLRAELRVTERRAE
Kd,koff,kon,Binder
0.0539 µM,0.0059 s⁻¹,109000 M⁻¹ s⁻¹,B1
0.123 µM,0.0176 s⁻¹,143000 M⁻¹ s⁻¹,B2
0.106 µM,0.0155 s⁻¹,147000 M⁻¹ s⁻¹,B3
3.39 µM,0.0871 s⁻¹,25700 M⁻¹ s⁻¹,B4
2.98 µM,0.169 s⁻¹,56600 M⁻¹ s⁻¹,B5
11.9 µM,0.133 s⁻¹,11200 M⁻¹ s⁻¹,B6
11.8 µM,0.263 s⁻¹,22200 M⁻¹ s⁻¹,B7
4.84 µM,0.0559 s⁻¹,11500 M⁻¹ s⁻¹,B8
6.48 µM,0.268 s⁻¹,41400 M⁻¹ s⁻¹,B9
